Assay results published in the supplement of paper PMC10126150.
± gives the standard deviation of the averaged measurements.
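Further: ATP exposure 15 min at 22 °C before imaging.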

What follows are sequences tested on ATP (assay: switch fluorescence ratio, 500 uM ATP over buffer (Cy3 cluster intensity, sum of 5 cycles each) (fold (ratio)); higher = stronger signal-on switching upon ATP binding; sequences stand for … in TCGTCGGCAGCGTCAGATGTGTATAAGAGACAGTTTTTTTTTTTTTTTTTTTTTTTTT…TC). Conditions: aptamer strand: ATP DNA aptamer (quencher-CACCTGGGGGAGTATTGCGGAGGAAGG + anchor), 100 nM annealed; ATP concentration: 500 uM.
Summary of the method: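 Imaging in selection buffer was followed by imaging after 15 min with 500 uM ATP at 22 °C, for Cy3-labelled switching-strand clusters annealed to 100 nM quencher-labelled ATP aptamer on a modified Illumina MiSeq flow-cell. Five of these buffer/ATP cycles ran, separated by NaOH stripping and re-annealing. The fluorescence ratio per cluster is summed target-cycle over summed buffer-cycle Cy3 intensity, averaged per switch-domain sequence; clusters outside 100-1000 RFU were removed.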
GAAAGCGCGT showed a switch fluorescence ratio of 0.965 ± 0.028. With GAAAGGAGGG the switch fluorescence ratio was 1.03 ± 0.065. GAAAGGATTA was tested, and the switch fluorescence ratio was 0.995 ± 0.063. GAAAGGGATT gave a switch fluorescence ratio of 1 ± 0.048. GAAAGGGGTA showed a switch fluorescence ratio of 1.01 ± 0.046. In the case of GAAAGGGTTG, the switch fluorescence ratio is reported as 0.968 ± 0.035. GAAAGTGTGG gave a switch fluorescence ratio of 0.971 ± 0.03. For GAAAGTGTTG, the switch fluorescence ratio was 0.9722 ± 0.0058. Work on GAAAGTTCGC yielded a switch fluorescence ratio of 1.02 ± 0.038. Sequence GAAATACAAC has a switch fluorescence ratio of 1.04 ± 0.028. For GAAATACGCT, the switch fluorescence ratio was 1.08 ± 0.022. GAAATATCAG showed a switch fluorescence ratio of 1.01 ± 0.029. GAAATATGTT showed a switch fluorescence ratio of 0.999 ± 0.014. Sequence GAAATATTAG has a switch fluorescence ratio of 1.02 ± 0.032. GAAATGGTAG was tested, and the switch fluorescence ratio was 0.99 ± 0.025. For GAAATGTGGT, the switch fluorescence ratio was 0.997 ± 0.02. Sequence GAAATGTTAG has a switch fluorescence ratio of 0.966 ± 0.025. In the case of GAAATGTTGG, the switch fluorescence ratio is reported as 0.981 ± 0.024. GAAATTAACT showed a switch fluorescence ratio of 1.01 ± 0.033. In the case of GAAATTGACC, the switch fluorescence ratio is reported as 1.02 ± 0.038. GAACATGCAG gave a switch fluorescence ratio of 1.01 ± 0.03. GAACCAGTAC gave a switch fluorescence ratio of 1.82 ± 0.032. With GAACCAGTGC the switch fluorescence ratio was 1.23 ± 0.083. GAACCTGGAT gave a switch fluorescence ratio of 1.16 ± 0.038. GAACCTTCGT was tested, and the switch fluorescence ratio was 1.05 ± 0.096. GAACGAACGG gave a switch fluorescence ratio of 1.08 ± 0.06. GAACGAAGCA showed a switch fluorescence ratio of 1.84 ± 0.051. Sequence GAACGAGGGG has a switch fluorescence ratio of 1.01 ± 0.019. With GAACGAGGGT the switch fluorescence ratio was 0.9676 ± 0.0013. GAACGATACA gave a switch fluorescence ratio of 1.334 ± 0.012. GAACGGAGCT was tested, and the switch fluorescence ratio was 1.09 ± 0.052. In the case of GAACGGAGGC, the switch fluorescence ratio is reported as 0.978 ± 0.016. Work on GAACGGTGTG yielded a switch fluorescence ratio of 0.996 ± 0.0057. Sequence GAACGTACAA has a switch fluorescence ratio of 1.587 ± 0.015. GAACGTGGAG showed a switch fluorescence ratio of 0.999 ± 0.02. With GAACTAAGCT the switch fluorescence ratio was 1.01 ± 0.028. In the case of GAACTAGGTG, the switch fluorescence ratio is reported as 1.444 ± 0.0058. GAACTCGGCG gave a switch fluorescence ratio of 1.02 ± 0.031. With GAACTCGGTC the switch fluorescence ratio was 0.994 ± 0.01. GAACTTAGAT gave a switch fluorescence ratio of 1.01 ± 0.04. GAAGAATCTG was tested, and the switch fluorescence ratio was 1.03 ± 0.016. In the case of GAAGAATTGT, the switch fluorescence ratio is reported as 0.991 ± 0.038. Sequence GAAGACCGGT has a switch fluorescence ratio of 0.985 ± 0.047. For GAAGACTACG, the switch fluorescence ratio was 1.04 ± 0.038. GAAGAGCCTA gave a switch fluorescence ratio of 0.986 ± 0.044. With GAAGATTGGG the switch fluorescence ratio was 0.998 ± 0.053. GAAGCAGGGG showed a switch fluorescence ratio of 2.26 ± 0.74. GAAGCATAAT showed a switch fluorescence ratio of 1.27 ± 0.12. With GAAGCCGGAC the switch fluorescence ratio was 1.12 ± 0.035. GAAGCGCCGG gave a switch fluorescence ratio of 1.01 ± 0.028. Work on GAAGCGGATG yielded a switch fluorescence ratio of 1.01 ± 0.031. For GAAGCTAGTA, the switch fluorescence ratio was 1.02 ± 0.024. GAAGCTGAAT gave a switch fluorescence ratio of 1.01 ± 0.0029. GAAGCTGCCA gave a switch fluorescence ratio of 1.031 ± 0.0067. In the case of GAAGCTTGGG, the switch fluorescence ratio is reported as 1.04 ± 0.025. GAAGGAAAGA gave a switch fluorescence ratio of 1.02 ± 0.037. GAAGGAACCG showed a switch fluorescence ratio of 1.025 ± 0.0063. Work on GAAGGAATAG yielded a switch fluorescence ratio of 1.66 ± 0.92. Work on GAAGGATATT yielded a switch fluorescence ratio of 1.018 ± 0.0039. Work on GAAGGCAGGG yielded a switch fluorescence ratio of 0.986 ± 0.029. Sequence GAAGGCATTC has a switch fluorescence ratio of 1.06 ± 0.031. For GAAGGCCCTG, the switch fluorescence ratio was 1.01 ± 0.04. For GAAGGCCTGT, the switch fluorescence ratio was 0.9745 ± 0.0097. Sequence GAAGGCTAAT has a switch fluorescence ratio of 0.974 ± 0.022. In the case of GAAGGCTCCG, the switch fluorescence ratio is reported as 1.04 ± 0.014. In the case of GAAGGGATGC, the switch fluorescence ratio is reported as 1.26 ± 0.073. GAAGGGCATT gave a switch fluorescence ratio of 0.9963 ± 0.0015. For GAAGGGCGGC, the switch fluorescence ratio was 1.01 ± 0.024. GAAGGGGAAA gave a switch fluorescence ratio of 1 ± 0.045. With GAAGGGGAAG the switch fluorescence ratio was 0.998 ± 0.0043. In the case of GAAGGGGCAA, the switch fluorescence ratio is reported as 1.18 ± 0.13. In the case of GAAGGGGGAC, the switch fluorescence ratio is reported as 1.01 ± 0.046. For GAAGGGGGGC, the switch fluorescence ratio was 1.05 ± 0.18. Sequence GAAGGGGTGT has a switch fluorescence ratio of 1.01 ± 0.031. GAAGGTGAGT showed a switch fluorescence ratio of 1.03 ± 0.014. For GAAGGTGATC, the switch fluorescence ratio was 1.01 ± 0.012. GAAGGTGTGC showed a switch fluorescence ratio of 1.07 ± 0.1. GAAGGTTTGT showed a switch fluorescence ratio of 1.002 ± 0.01. With GAAGTAACAG the switch fluorescence ratio was 1.03 ± 0.027. GAAGTAGAGT showed a switch fluorescence ratio of 0.963 ± 0.028. GAAGTAGCCT gave a switch fluorescence ratio of 0.9985 ± 0.0086. GAAGTGAGGT showed a switch fluorescence ratio of 1.01 ± 0.016. In the case of GAAGTGCGAG, the switch fluorescence ratio is reported as 1.004 ± 0.008. GAAGTGGGGT showed a switch fluorescence ratio of 0.995 ± 0.015. GAAGTGTGAA was tested, and the switch fluorescence ratio was 1 ± 0.022. GAAGTTGCCC was tested, and the switch fluorescence ratio was 0.994 ± 0.028. Sequence GAAGTTGGGA has a switch fluorescence ratio of 0.9857 ± 0.0095. Sequence GAAGTTTGTG has a switch fluorescence ratio of 1.019 ± 0.0075. GAAGTTTGTT was tested, and the switch fluorescence ratio was 0.98 ± 0.026. GAATAAAGTT gave a switch fluorescence ratio of 0.986 ± 0.046. With GAATAAATAG the switch fluorescence ratio was 1 ± 0.024. For GAATAACTAG, the switch fluorescence ratio was 0.9776 ± 0.0088. GAATAGGGGC showed a switch fluorescence ratio of 0.965 ± 0.01. GAATATACGC was tested, and the switch fluorescence ratio was 1.04 ± 0.021. GAATATATGT gave a switch fluorescence ratio of 1.04 ± 0.028. Sequence GAATATTTTT has a switch fluorescence ratio of 1.02 ± 0.034. Sequence GAATCAAAAA has a switch fluorescence ratio of 1 ± 0.088. For GAATCATACA, the switch fluorescence ratio was 1.05 ± 0.074. With GAATCGTAGC the switch fluorescence ratio was 1 ± 0.022. With GAATCGTGAG the switch fluorescence ratio was 0.999 ± 0.04.
